Measurements from PMC314469, “Protein Interaction Networks by Proteome Peptide Scanning” (PLoS Biology, 2004).

T1: Myo5 SH3 (MYO5_YEAST), Q04439
T1 chain: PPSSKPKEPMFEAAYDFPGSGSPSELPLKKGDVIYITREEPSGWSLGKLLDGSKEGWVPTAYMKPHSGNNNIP


Biological target: T1, Myo5 SH3 (MYO5_YEAST), Q04439
Test: SPOT array

Binder	normalised SPOT signal, Boehringer light units (BLU); mean over the file's lines of this peptide
QFSGLLEPSLPNNM [YJL046W 318-331]	84.4
PPPDFNDPTAPLSS [YGL014W 93-106]	153
REFEFIIPVFPVIS [YDL233W 197-210]	163
PPEGFPEPLNPTNF [YIL005W 29-42]	86
RLTNFEVPSLPTFH [YIL037C 447-460]	319
RLSLLRSPKAPDAH [YGL156W 915-928]	442
RPQWLSYPEQPLNS [YBL088C 912-925]	241
QLVTLISPYDPNFK [YJR119C 479-492]	178
RLNSFAPPPNPYAT [YDL195W 847-860]	274
REVDLPIPAQPGPP [YDR236C 34-47]	114
PPPPMGQPKDPKFE [YKL129C 1112-1125]	248
QLIGFGNPKNPFAL [YIL151C 523-536]	46.1
QLRSLFKPFGPILN [YBR212W 375-388]	370
RLQKLDDPKSPYQS [YDL205C 162-175]	127
REASLDIPYKPIIA [YFL011W 32-45]	176
PLFGLSIPKTPTLK [YBL035C 102-115]	122
PPLDFEQPRLPSTA [YAL017W 90-103]	192
RAAGMDVPIIPGIM [YGL125W 205-218]	98.2
QEISLIDPSTPDKA [YGR083C 349-362]	155

Binder	normalised SPOT signal, Boehringer light units (BLU); mean over the file's lines of this peptide
QFSPMDDPKSPTPM [YCL029C 108-121]	121
PEVKHFSPSTPIML [YKR055W 169-182]	93.7
PLTTLPPPRLPSIQ [YCR033W 1026-1039]	2790
PPPPLPPPLFPSSS [YER033C 119-132]	38500
SATGWLKPAVPIQW [YGL065C 374-387]	94.6
QFQKLVPPTLPENV [YIL132C 50-63]	154
SAFPYVFPLPPWIP [YFL006W 181-194]	13000
QASMLRRPSLPHID [YKR077W 284-297]	1100
PLNQLPNPAMPLLH [YER169W 383-396]	104
RLLALFIPALPFII [YEL065W 193-206]	265
PPKLLVYPESPETN [YBR279W 23-36]	91.3
QENPYIIPLPPSST [YBR212W 12-25]	240
SAENLIQPTAPIRD [YIR029W 44-57]	56.4
RPPSHSAPYIPRSS [YDR132C 184-197]	47400
PEVLMDQPYSPLSD [YAR018C 257-270]	78.7
PFSSMKEPFIPQSS [YBR172C 147-160]	411
PPQTHQSPPPPPQQ [YBR289W 73-86]	222
QPAQFMPPQDPAAA [YIL109C 25-38]	134

Results, then the binder that gave them:

normalised SPOT signal, Boehringer light units (BLU); mean over the file's lines of this peptide	Binder
6720	PPMAYNRPVYPPPQ [YOR197W 87-100]
224	QPTNFQYPPPPFGQ [YNL124W 379-392]
187	QPQAYHLPGNPYST [YNL278W 921-934]
119	QELRFLVPLVPLLV [YOR149C 314-327]
441	RLFDLVKPKNPKFS [YLR086W 763-776]
76200	QPQHLPPPPPPRAQ [YOR329C 661-674]
47000	PLPTFSAPSLPQQS [YLR337C 659-672]
145	REDAHEDPVSPKAG [YOL082W 127-140]
98.9	PFIDYEFPHLPNEL [YOR037W 215-228]
164	SASTMAAPVHPQQQ [YMR002W 21-34]
126	QPAQLQEPQEPLST [YMR148W 78-91]
79.6	SANNYPFPQQPNGM [YNL124W 356-369]
215	SAYYLGLPVTPEDM [YOL057W 181-194]
845	RLWLYAAPKRPKTF [YMR156C 129-142]
95700	PPPPPPPPPVPA [YNL271C 1240-1251]
777	RPSKFFHPPIPHIP [YOR235W 5-18]
158	RFHVFSEPILPSVA [YOR160W 693-706]
145	PFYTMPDPANPKYS [YLL018C 454-467]
139	QELPMEVPKEPAPA [YLR399C 121-134]
172	PFGTFTLPADPEYK [YNL134C 307-320]
4750	PLAPLPPPPPPSVA [YLR337C 421-434]
